# Measured values published in patent US20240400701A1 (LANOVA MEDICINES DEVELOPMENT, published 2024).
# T1: human AMHRII (anti-Mullerian hormone receptor type 2) (human, UniProt Q16671 18-573)
# T1 construct: whole, on cells; also called AMHR2; human AMHR2
# T1 sequence (looked up): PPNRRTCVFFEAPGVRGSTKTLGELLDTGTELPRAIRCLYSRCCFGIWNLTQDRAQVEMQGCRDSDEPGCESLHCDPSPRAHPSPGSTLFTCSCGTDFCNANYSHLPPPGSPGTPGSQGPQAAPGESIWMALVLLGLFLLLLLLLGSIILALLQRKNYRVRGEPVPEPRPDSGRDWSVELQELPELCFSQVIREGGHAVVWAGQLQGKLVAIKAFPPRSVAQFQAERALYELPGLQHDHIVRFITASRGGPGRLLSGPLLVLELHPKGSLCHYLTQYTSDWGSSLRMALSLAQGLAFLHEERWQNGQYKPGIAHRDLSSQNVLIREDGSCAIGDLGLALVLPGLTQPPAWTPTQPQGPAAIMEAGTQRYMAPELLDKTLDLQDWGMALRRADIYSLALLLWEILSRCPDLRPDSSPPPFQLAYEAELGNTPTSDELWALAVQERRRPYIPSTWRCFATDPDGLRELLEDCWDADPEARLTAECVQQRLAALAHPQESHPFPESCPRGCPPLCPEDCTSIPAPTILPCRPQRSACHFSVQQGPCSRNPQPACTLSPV
# Target: T1, human AMHRII (anti-Mullerian hormone …)
# Assay: FACS on CHO-K1 cells over-expressing human AMHR2
# Experimental: CHO-K1 cells over-expressed AMHR2 were harvested from flasks. 100 μl of 1×10⁶ cells/ml of cells were incubated with the humanized antibodies in 3-fold serial dilutions starting from 300 nM to 0.001 nM for 30 minutes on ice. After being washed with 200 μl of FACS buffer twice, cells were incubated with secondary antibody for 30 minutes on ice. Cells were washed with 200 μl of FACS buffer twice and analyzed by FACS.
EC50,Top (MFI),Binder
0.68 nM,67900 MFI,"108F3D1E9 H2L2 hIgG1 (antibody, V domains shown, Humanized, human IgG1; also called 108F3D1E9 H2L2 hlgG1) VH: QLQLQESGPGLVKPSETLSLTCTVSGYSITSDFAWNWIRQPPGKGLEWMGYISFSGSTSYNPSLKSRVTISRDTSKNQFSLKLSSVTAADTAVYYCAGSRYSWFAYWGQGTLVTVSS VL: DIQLTQSPSSLSASVGDRVTITCRASESVDTYGNSFMHWYQQKPGKPPKLLIYRASNLESGIPSRFSGSGSGTDFTLTISSLQPEDFATYYCQQSNEDPYTFGGGTKVEIK"
1.42 nM,56600 MFI,"94C4C3 H2L2 hIgG1 (antibody, V domains shown, Humanized, human IgG1; also called 94C4C3 H2L2 hlgG1) VH: QLQLQESGPGLVKPSETLSLTCTVSGYSITSDYAWNWIRQPPGKGLEWMGYISYSGSISYNPSLKSRITISRDTSKNQFSLKLSSVTAADTAVYYCARSRYSWFDYWGQGTLVTVSS VL: EIVLTQSPGTLSLSPGERATLSCSASESVDTYGNSFMHWYQQKPGQPPRLLIYRASSLESGIPVRFSGSGSRTDFTLTISRLEPEDFAVYYCQQSNEDPYTFGGGTKVEIK"
1.45 nM,50200 MFI,"94C4C3 H1L3 hIgG1 (antibody, V domains shown, Humanized, human IgG1; also called 94C4C3 H1L3 hlgG1) VH: QLQLQESGPGLVKPSETLSLTCTVSGYSITSDYAWNWIRQPPGKGLEWIGYISYSGSISYNPSLKSRVTISVDTSKNQFSLKLSSVTAADTAVYYCARSRYSWFDYWGQGTLVTVSS VL: EIVLTQSPGTLSLSPGERATLSCSASESVDTYGNSFMHWYQQKPGQPPRLLIYRASSLESGIPVRFSGSGSRTDFTLTISRVEAEDFAVYYCQQSNEDPYTFGGGTKLEIK"
0.74 nM,67300 MFI,"108F3D1E9 H2L3 hIgG1 (antibody, V domains shown, Humanized, human IgG1; also called 108F3D1E9 H2L3 hlgG1) VH: QLQLQESGPGLVKPSETLSLTCTVSGYSITSDFAWNWIRQPPGKGLEWMGYISFSGSTSYNPSLKSRVTISRDTSKNQFSLKLSSVTAADTAVYYCAGSRYSWFAYWGQGTLVTVSS VL: DIVLTQSPSSLSASVGDRVTITCRASESVDTYGNSFMHWYQQKPGQPPKLLIYRASNLESGIPARFSGSGSGTDFTLTISSVQPEDFATYYCQQSNEDPYTFGGGTKVEIK"
0.65 nM,70600 MFI,"108F3D1E9 H2L4 hIgG1 (antibody, V domains shown, Humanized, human IgG1; also called 108F3D1E9 H2L4 hlgG1) VH: QLQLQESGPGLVKPSETLSLTCTVSGYSITSDFAWNWIRQPPGKGLEWMGYISFSGSTSYNPSLKSRVTISRDTSKNQFSLKLSSVTAADTAVYYCAGSRYSWFAYWGQGTLVTVSS VL: DIVLTQSPSSLSVSVGDRATITCRASESVDTYGNSFMHWYQQKPGQPPKLLIYRASNLESGIPARFSGSGSRTDFTLTISSVQPEDFATYYCQQSNEDPYTFGGGTKLEIK"
1.21 nM,47200 MFI,"94C4C3 H1L4 hIgG1 (antibody, V domains shown, Humanized, human IgG1; also called 94C4C3 H1L4 hlgG1) VH: QLQLQESGPGLVKPSETLSLTCTVSGYSITSDYAWNWIRQPPGKGLEWIGYISYSGSISYNPSLKSRVTISVDTSKNQFSLKLSSVTAADTAVYYCARSRYSWFDYWGQGTLVTVSS VL: DIVLTQSPGTLSVSPGERATLSCSASESVDTYGNSFMHWYQQKPGQPPKLLIYRASSLESGIPVRFSGSGSRTDFTLTISRVEAEDFAVYYCQQSNEDPYTFGGGTKLEIK"
1.31 nM,52800 MFI,"94C4C3 H2L1 hIgG1 (antibody, V domains shown, Humanized, human IgG1; also called 94C4C3 H2L1 hlgG1) VH: QLQLQESGPGLVKPSETLSLTCTVSGYSITSDYAWNWIRQPPGKGLEWMGYISYSGSISYNPSLKSRITISRDTSKNQFSLKLSSVTAADTAVYYCARSRYSWFDYWGQGTLVTVSS VL: EIVLTQSPGTLSLSPGERATLSCSASESVDTYGNSFMHWYQQKPGQAPRLLIYRASSLESGIPDRFSGSGSGTDFTLTISRLEPEDFAVYYCQQSNEDPYTFGGGTKVEIK"
1.46 nM,49600 MFI,"94C4C3 H1L2 hIgG1 (antibody, V domains shown, Humanized, human IgG1; also called 94C4C3 H1L2 hlgG1) VH: QLQLQESGPGLVKPSETLSLTCTVSGYSITSDYAWNWIRQPPGKGLEWIGYISYSGSISYNPSLKSRVTISVDTSKNQFSLKLSSVTAADTAVYYCARSRYSWFDYWGQGTLVTVSS VL: EIVLTQSPGTLSLSPGERATLSCSASESVDTYGNSFMHWYQQKPGQPPRLLIYRASSLESGIPVRFSGSGSRTDFTLTISRLEPEDFAVYYCQQSNEDPYTFGGGTKVEIK"
0.55 nM,64400 MFI,"108F3D1E9 H2L1 hIgG1 (antibody, V domains shown, Humanized, human IgG1; also called 108F3D1E9 H2L1 hlgG1) VH: QLQLQESGPGLVKPSETLSLTCTVSGYSITSDFAWNWIRQPPGKGLEWMGYISFSGSTSYNPSLKSRVTISRDTSKNQFSLKLSSVTAADTAVYYCAGSRYSWFAYWGQGTLVTVSS VL: DIQMTQSPSSLSASVGDRVTITCRASESVDTYGNSFMHWYQQKPGKAPKLLIYRASNLESGVPSRFSGSGSGTDFTLTISSLQPEDFATYYCQQSNEDPYTFGGGTKVEIK"
0.82 nM,64600 MFI,"108F3D1E9 H1L2 hIgG1 (antibody, V domains shown, Humanized, human IgG1; also called 108F3D1E9 H1L2 hlgG1) VH: QLQLQESGPGLVKPSETLSLTCTVSGYSITSDFAWNWIRQPPGKGLEWIGYISFSGSTSYNPSLKSRVTISVDTSKNQFSLKLSSVTAADTAVYYCARSRYSWFAYWGQGTLVTVSS VL: DIQLTQSPSSLSASVGDRVTITCRASESVDTYGNSFMHWYQQKPGKPPKLLIYRASNLESGIPSRFSGSGSGTDFTLTISSLQPEDFATYYCQQSNEDPYTFGGGTKVEIK"
0.82 nM,66700 MFI,"108F3D1E9 H1L3 hIgG1 (antibody, V domains shown, Humanized, human IgG1; also called 108F3D1E9 H1L3 hlgG1) VH: QLQLQESGPGLVKPSETLSLTCTVSGYSITSDFAWNWIRQPPGKGLEWIGYISFSGSTSYNPSLKSRVTISVDTSKNQFSLKLSSVTAADTAVYYCARSRYSWFAYWGQGTLVTVSS VL: DIVLTQSPSSLSASVGDRVTITCRASESVDTYGNSFMHWYQQKPGQPPKLLIYRASNLESGIPARFSGSGSGTDFTLTISSVQPEDFATYYCQQSNEDPYTFGGGTKVEIK"
0.88 nM,70900 MFI,"108F3D1E9 H1L4 hIgG1 (antibody, V domains shown, Humanized, human IgG1; also called 108F3D1E9 H1L4 hlgG1) VH: QLQLQESGPGLVKPSETLSLTCTVSGYSITSDFAWNWIRQPPGKGLEWIGYISFSGSTSYNPSLKSRVTISVDTSKNQFSLKLSSVTAADTAVYYCARSRYSWFAYWGQGTLVTVSS VL: DIVLTQSPSSLSVSVGDRATITCRASESVDTYGNSFMHWYQQKPGQPPKLLIYRASNLESGIPARFSGSGSRTDFTLTISSVQPEDFATYYCQQSNEDPYTFGGGTKLEIK"
5.52 nM,10400 MFI,"31D9B3 VH1-VL2.1 hIgG1 (antibody, V domains shown, Humanized, PTM de-risked (VL D(30C)S), human IgG1; also called 31D9B3 VH1-VL2.1 hlgG1) VH: QVQLVQSGAEVKKPGASVKVSCKASGYTFTDYWVSWVRQAPGQGLEWMGEIYPKNGVSNFNEKFKGRVTMTTDTSTSTAYMELRSLRSDDTAVYYCARQRDYWGQGTLVTVSS VL: DVVMTQSPLSLPVTLGQPASISCRSSQSLEYGSGYTYLEWYLQRPGQSPRLLIYGVSNRFSGVPDRFSGSGSGTDFTLKISRVEAEDVGVYYCFQATHDPNTFGQGTKLEIK"
145 nM,6580 MFI,"31D9B3 VH1.1-VL2.3 hIgG1 (antibody, V domains shown, Humanized, PTM de-risked, human IgG1; also called 31D9B3 VH1.1-VL2.3 hlgG1) VH: QVQLVQSGAEVKKPGASVKVSCKASGYTFTDYWVSWVRQAPGQGLEWMGEIYPKEGVSNFNEKFKGRVTMTTDTSTSTAYMELRSLRSDDTAVYYCARQRDYWGQGTLVTVSS VL: DVVMTQSPLSLPVTLGQPASISCRSSQSLEYGTGYTYLEWYLQRPGQSPRLLIYGVSNRFSGVPDRFSGSGSGTDFTLKISRVEAEDVGVYYCFQATHDPNTFGQGTKLEIK"
89.7 nM,2170 MFI,"31D9B3 VH1.1-VL2.1 hIgG1 (antibody, V domains shown, Humanized, PTM de-risked, human IgG1; also called 31D9B3 VH1.1-VL2.1 hlgG1) VH: QVQLVQSGAEVKKPGASVKVSCKASGYTFTDYWVSWVRQAPGQGLEWMGEIYPKEGVSNFNEKFKGRVTMTTDTSTSTAYMELRSLRSDDTAVYYCARQRDYWGQGTLVTVSS VL: DVVMTQSPLSLPVTLGQPASISCRSSQSLEYGSGYTYLEWYLQRPGQSPRLLIYGVSNRFSGVPDRFSGSGSGTDFTLKISRVEAEDVGVYYCFQATHDPNTFGQGTKLEIK"
0.625 nM,14500 MFI,"31D9B3 VH1.1-VL2.2 hIgG1 (antibody, V domains shown, Humanized, PTM de-risked, human IgG1; also called 31D9B3 VH1.1-VL2.2 hlgG1) VH: QVQLVQSGAEVKKPGASVKVSCKASGYTFTDYWVSWVRQAPGQGLEWMGEIYPKEGVSNFNEKFKGRVTMTTDTSTSTAYMELRSLRSDDTAVYYCARQRDYWGQGTLVTVSS VL: DVVMTQSPLSLPVTLGQPASISCRSSQSLEYGDRYTYLEWYLQRPGQSPRLLIYGVSNRFSGVPDRFSGSGSGTDFTLKISRVEAEDVGVYYCFQATHDPNTFGQGTKLEIK"
0.331 nM,12500 MFI,"31D9B3 VH1-VL2.3 hIgG1 (antibody, V domains shown, Humanized, PTM de-risked (VL D(30C)T), human IgG1; also called 31D9B3 VH1-VL2.3 hlgG1) VH: QVQLVQSGAEVKKPGASVKVSCKASGYTFTDYWVSWVRQAPGQGLEWMGEIYPKNGVSNFNEKFKGRVTMTTDTSTSTAYMELRSLRSDDTAVYYCARQRDYWGQGTLVTVSS VL: DVVMTQSPLSLPVTLGQPASISCRSSQSLEYGTGYTYLEWYLQRPGQSPRLLIYGVSNRFSGVPDRFSGSGSGTDFTLKISRVEAEDVGVYYCFQATHDPNTFGQGTKLEIK"
0.875 nM,16800 MFI,"31D9B3 VH1.1-VL2 hIgG1 (antibody, V domains shown, Humanized, PTM de-risked (VH N54E), human IgG1; also called 31D9B3 VH1.1-VL2 hlgG1) VH: QVQLVQSGAEVKKPGASVKVSCKASGYTFTDYWVSWVRQAPGQGLEWMGEIYPKEGVSNFNEKFKGRVTMTTDTSTSTAYMELRSLRSDDTAVYYCARQRDYWGQGTLVTVSS VL: DVVMTQSPLSLPVTLGQPASISCRSSQSLEYGDGYTYLEWYLQRPGQSPRLLIYGVSNRFSGVPDRFSGSGSGTDFTLKISRVEAEDVGVYYCFQATHDPNTFGQGTKLEIK"
